Measurements reported in the supplement of paper PMC5998384.

Tests used:
HeLa Kyoto [1] = test: solubility in G1/S (NP-40 vs SDS abundance) (log2 ratio); higher = more soluble; conditions: cell cycle stage: G1/S
HeLa Kyoto [2] = test: melting temperature (median over replicates), in situ; higher = more thermally stable
HeLa Kyoto [3] = test: thermal stability score vs G1/S (z-score of summed log2 fold changes over temperatures); higher = more thermally stable than in G1/S
HeLa Kyoto [4] = test: solubility change mitosis vs G1/S (difference of NP-40 vs SDS log2 ratios) (log2 ratio difference); higher = more soluble in mitosis
[5] = cell cycle stage: early G1 (4.5 h after nocodazole release)
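Throughout, for melting temperature (median over replicates), in situ: HeLa Kyoto cells synchronized by double thymidine or nocodazole block, proteins quantified by TMT10plex mass spectrometry, three independent biological replicates.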
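Throughout, for solubility change mitosis vs G1/S (difference of NP-40 vs SDS log2 ratios): synchronized HeLa Kyoto cells (double thymidine block for G1/S, nocodazole release for mitosis), protein amounts in NP-40 versus SDS lysates quantified by mass spectrometry, three biological replicates.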
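Throughout, for solubility in G1/S (NP-40 vs SDS abundance): HeLa Kyoto cells arrested at G1/S by double thymidine block, proteins quantified by TMT10plex mass spectrometry in mild NP-40 versus SDS extracts, three biological replicates.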
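Throughout, for thermal stability score vs G1/S (z-score of summed log2 fold changes over temperatures): synchronized HeLa Kyoto cells, proteins quantified by TMT10plex mass spectrometry, three biological replicates, mitosis taken 0.5 h after nocodazole release, G1/S directly after double thymidine block.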

Chain of PUDP (chain, as listed by the source): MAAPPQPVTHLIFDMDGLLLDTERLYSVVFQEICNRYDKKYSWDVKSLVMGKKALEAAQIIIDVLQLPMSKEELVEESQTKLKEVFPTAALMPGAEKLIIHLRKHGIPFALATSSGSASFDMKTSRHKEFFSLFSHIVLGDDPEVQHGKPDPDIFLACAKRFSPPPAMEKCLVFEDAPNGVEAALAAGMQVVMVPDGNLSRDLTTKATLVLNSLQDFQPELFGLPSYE

| Substance | solubility in G1/S (log2) (HeLa Kyoto [1]) | melting temperature (HeLa Kyoto [2]; cell cycle stage: G1/S) | melting temperature (HeLa Kyoto [2]; cell cycle stage: mitosis) | thermal stability score (HeLa Kyoto [3]; [5]) | thermal stability score (HeLa Kyoto [3]; cell cycle stage: mitosis) | solubility change mitosis (log2) (HeLa Kyoto [4]) |
| --- | --- | --- | --- | --- | --- | --- |
| MEGCVSNLMVCNLAYSGKLEELKESILADKSLATRTDQDSRTALHWACSAGHTEIVEFLLQLGVPVNDKDDAGWSPLHIAASAGRDEIVKALLGKGAQVNAVNQNGCTPLHYAASKNRHEIAVMLLEGGANPDAKDHYEATAMHRAAAKGNLKMIHILLYYKASTNIQDTEGNTPLHLACDEERVEEAKLLVSQGASIYIENKEEKTPLQVAKGGLGLILKRMVEG [PSMD10] | 0.145 | 48.5 °C | 49.8 °C | 0.248 | 1.31 | 0.136 |
| MSRRLLPRAEKRRRRLEQRQQPDEQRRRSGAMVKMAAAGGGGGGGRYYGGGSEGGRAPKRLKTDNAGDQHGGGGGGGGGAGAAGGGGGGENYDDPHKTPASPVVHIRGLIDGVVEADLVEALQEFGPISYVVVMPKKRQALVEFEDVLGACNAVNYAADNQIYIAGHPAFVNYSTSQKISRPGDSDDSRSVNSVLLFTILNPIYSITTDVLYTICNPCGPVQRIVIFRKNGVQAMVEFDSVQSAQRAKASLNGADIYSGCCTLKIEYAKPTRLNVFKNDQDTWDYTNPNLSGQGDPGSNPNKRQRQPPLLGDHPAEYGGPHGGYHSHYHDEGYGPPPPHYEGRRMGPPVGGHRRGPSRYGPQYGHPPPPPPPPEYGPHADSPVLMVYGLDQSKMNCDRVFNVFCLYGNVEKVKFMKSKPGAAMVEMADGYAVDRAITHLNNNFMFGQKLNVCVSKQPAIMPGQSYGLEDGSCSYKDFSESRNNRFSTPEQAAKNRIQHPSNVLHFFNAPLEVTEENFFEICDELGVKRPSSVKVFSGKSERSSSGLLEWESKSDALETLGFLNHYQMKNPNGPYPYTLKLCFSTAQHAS [HNRNPL] | -0.26 | 46.4 °C | 48.1 °C | 5.28 | 10.5 | 0.228 |
| MPLGLGRRKKAPPLVENEEAEPGRGGLGVGEPGPLGGGGSGGPQMGLPPPPPALRPRLVFHTQLAHGSPTGRIEGFTNVKELYGKIAEAFRLPTAEVMFCTLNTHKVDMDKLLGGQIGLEDFIFAHVKGQRKEVEVFKSEDALGLTITDNGAGYAFIKRIKEGSVIDHIHLISVGDMIEAINGQSLLGCRHYEVARLLKELPRGRTFTLKLTEPRKAFDMISQRSAGGRPGSGPQLGTGRGTLRLRSRGPATVEDLPSAFEEKAIEKVDDLLESYMGIRDTELAATMVELGKDKRNPDELAEALDERLGDFAFPDEFVFDVWGAIGDAKVGRY [GIPC1] | 0.314 | 49.5 °C | 48.7 °C | -0.363 | 1.49 | -0.156 |
| MACAEFSFHVPSLEELAGVMQKGLKDNFADVQVSVVDCPDLTKEPFTFPVKGICGKTRIAEVGGVPYLLPLVNQKKVYDLNKIAKEIKLPGAFILGAGAGPFQTLGFNSEFMPVIQTESEHKPPVNGSYFAHVNPADGGCLLEKYSEKCHDFQCALLANLFASEGQPGKVIEVKAKRRTGPLNFVTCMRETLEKHYGNKPIGMGGTFIIQKGKVKSHIMPAEFSSCPLNSDEEVNKWLHFYEMKAPLVCLPVFVSRDPGFDLRLEHTHFFSRHGEGGHYHYDTTPDIVEYLGYFLPAEFLYRIDQPKETHSIGRD [C11ORF54] | 0.72 | 55.7 °C | 56.3 °C | -2.98 | -4.1 | -0.126 |
| PUDP | 0.454 | 54.5 °C | 55.5 °C | 1.26 | 0.384 | -0.0216 |
| XPNPEP3 | 0.275 | 53.4 °C | 53.3 °C | -0.645 | -2.12 | -0.146 |
